Assay results: publication doi:10.1101/2023.01.25.525455

How the values were obtained:
[1] = target: GFP-tagged VPS35L with complete deletion of the β-hairpin (human) (UniProt Q7Z3J2); assay: co-IP
[2] = target: GFP-tagged VPS35L(I761G) (human) (UniProt Q7Z3J2); assay: co-IP
Sequence of GFP-tagged VPS35L(I761G) (human) (Q7Z3J2 whole entry I761G): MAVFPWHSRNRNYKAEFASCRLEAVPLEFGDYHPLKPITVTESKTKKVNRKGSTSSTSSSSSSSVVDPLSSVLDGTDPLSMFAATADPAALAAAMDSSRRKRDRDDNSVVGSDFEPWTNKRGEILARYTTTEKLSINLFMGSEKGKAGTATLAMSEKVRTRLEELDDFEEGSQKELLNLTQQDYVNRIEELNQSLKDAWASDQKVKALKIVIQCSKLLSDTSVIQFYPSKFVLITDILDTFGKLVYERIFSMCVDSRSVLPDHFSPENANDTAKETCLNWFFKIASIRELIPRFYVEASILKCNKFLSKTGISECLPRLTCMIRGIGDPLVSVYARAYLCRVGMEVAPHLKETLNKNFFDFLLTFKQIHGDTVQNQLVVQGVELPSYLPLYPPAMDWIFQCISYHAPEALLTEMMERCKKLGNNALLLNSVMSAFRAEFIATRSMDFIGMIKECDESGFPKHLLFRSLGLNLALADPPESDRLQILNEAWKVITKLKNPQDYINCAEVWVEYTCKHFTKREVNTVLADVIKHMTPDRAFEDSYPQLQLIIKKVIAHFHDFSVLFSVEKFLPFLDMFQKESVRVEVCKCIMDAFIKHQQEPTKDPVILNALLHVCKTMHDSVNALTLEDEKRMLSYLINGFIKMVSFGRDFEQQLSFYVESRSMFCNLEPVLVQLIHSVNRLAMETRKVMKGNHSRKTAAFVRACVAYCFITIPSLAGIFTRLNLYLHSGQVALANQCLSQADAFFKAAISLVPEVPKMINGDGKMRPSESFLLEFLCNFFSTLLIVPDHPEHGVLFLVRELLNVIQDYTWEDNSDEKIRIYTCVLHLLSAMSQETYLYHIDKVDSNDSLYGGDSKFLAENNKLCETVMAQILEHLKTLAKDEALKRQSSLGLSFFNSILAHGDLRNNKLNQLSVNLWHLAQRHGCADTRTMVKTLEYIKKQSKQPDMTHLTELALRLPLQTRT

Sequence of GFP-tagged VPS35L with complete deletion of the β-hairpin (human) (Q7Z3J2 whole entry, stated change not applied): as the sequence (Q7Z3J2 whole entry I761G) above, with G761I counted along it

percent reduction in binding (against wild type) [1]: > 50% | percent reduction in binding (against wild type) [2]: > 50%
Substance: VPS29 (endogenous, HEK293T) (from UniProt Q9UBQ0 1-182) (natural protein)
